Source: patent US20030003461, “Truncation selex method” (Gilead Sciences, Inc., published 2003)

Biological target: VEGF (Homo sapiens, UniProt P15692-4 P15692-4:27-191)
Experiment: filter; phenotype 5: non-binding with or without 3' fixed sequence
Conditions: tags: recombinant human, R&D Systems; chain copies: 2

Chain of VEGF (P15692 other isoform, or with tags, fused parts or gaps): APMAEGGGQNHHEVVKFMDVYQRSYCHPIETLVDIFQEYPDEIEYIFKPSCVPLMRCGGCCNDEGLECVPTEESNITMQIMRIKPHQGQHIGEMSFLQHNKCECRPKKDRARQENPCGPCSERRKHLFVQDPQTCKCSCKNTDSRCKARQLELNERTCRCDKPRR

GGGAGGAAGAAUUGGAAACAUUGCUCGUCAGACGACUCGCCCGA (ssRNA, 2'-F pyrimidines) [T1-11]
binding result: no binding
